Values quoted from earlier work as cited in publication PMC6120632.

Biological target: Basigin (Homo sapiens) (UniProt P35613)
UniProt P35613, sequence (P35613 22-325): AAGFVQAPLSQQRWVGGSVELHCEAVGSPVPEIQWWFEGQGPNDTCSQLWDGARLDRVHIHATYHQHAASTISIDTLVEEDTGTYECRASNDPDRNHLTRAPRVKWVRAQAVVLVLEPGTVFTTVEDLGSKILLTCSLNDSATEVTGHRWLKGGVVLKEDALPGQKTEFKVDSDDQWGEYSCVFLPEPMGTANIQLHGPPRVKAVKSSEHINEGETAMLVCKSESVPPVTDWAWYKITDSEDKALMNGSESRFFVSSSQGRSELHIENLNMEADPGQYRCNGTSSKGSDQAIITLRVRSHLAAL

In the case of RH5 (from UniProt Q8IFM5), the Kd is listed as 1 µM.
